Columns and labels:
[1] = Release from L-PLA-co PEG5000 hydrogel-wall balloons in aqueous media; assay type: physicochemical; conditions: 1 cm balloons of L-PLA-co PEG5000 triblock or 50:50 mixture with L-PLA, 200 and 300 micron wall thicknesses
Experimental: In a similar experiment, biodegradable balloons of 1 cm diameter were prepared from triblock copolymers of L-PLA-co PEG5000, Mw=80,000 or in a 50:50 mixture with L-PLA Mw=120,000 by the solvent casting on a gelatin mold method. Balloons with 200 and 300 micron wall thicknesses were prepared. These balloons swell when inserted in aqueous media to form hydrogel walls which are permeable to water soluble molecules.

[2] = Release of loaded agents from poly(caprolactone-L-lactide)/PEG porogen balloons; assay type: physicochemical; conditions: for period of constant release from balloon: loaded with 10% w/v solution
Experimental: In a typical experiment, dichloromethane solutions of poly(caprolactone-L-lactide) 70:30 w/w, Mw=100,000 and polyethylene glycol Mw=400 (PEG400) and PEG2000 mixed at a 1, 5, 10 and 20 w/w % per polymer were used for producing balloons by dipping as described above. The balloons were immersed in water to allow the leach-out of the water soluble PEG. The balloons were analyzed for pore size, uniformity of pores throughout the membrane, and diffusion of LHRH hormone and BSA (bovine serum albumin) as representative protein. Uniform micron size holes of a similar size were generated for the 1 and 5% PEG but more holes for the 5%, while the 20% PEG generated much larger holes throughout the wall which also affects the strength of the wall. […] The balloon remain inflated for about 4 months in 0.1M phosphate buffer solution at 37° C. before signs of degradation occur measured by a significant decrease in molecular weight and change in the flexibility and clarity of the balloons. In a continuation experiment, lyophilized powder of LHRH (10 mg) on dextrose (100 mg) was dispersed in glycerol (100 mg) and injected into the 10 mm diameter balloon and release under physiological conditions was determined.

Compound | release from hydrogel-wall balloons [1] | period of constant release from balloon ([2]; 5% PEG balloons of poly(caprolactone-L-lactide) 70:30) | period of constant release from balloon ([2]; 20% PEG balloons of poly(caprolactone-L-lactide) 70:30) | release of native LHRH from balloon, determined by HPLC ([2]; lyophilized LHRH (10 mg) on dextrose (100 mg) dispersed in glycerol (100 mg), 10 mm diameter balloon, physiological conditions) | release behaviour in comparison with the other loaded agents ([2]; poly(caprolactone-L-lactide)/PEG balloons)
LHRH: LHRH hormone, therapeutic peptide loaded in the balloon | released at low concentrations over time | a few months | weeks | constantly released for weeks | –
O=c1[nH]cc(F)c(=O)[nH]1 [5-FU] | constantly release at high amounts for weeks | – | – | – | released much faster for a shorter time period at a zero order profile
CN(Cc1cnc2nc(N)nc(N)c2n1)c1ccc(C(=O)N[C@@H](CCC(=O)O)C(=O)O)cc1 [methotrexate] | constantly release at high amounts for weeks | – | – | – | –

From US8480647B2, “Delivery device for delivering bioactive agents to internal tissue in a body” (Bioprotect Ltd., priority 2007, dated 2013)
